According to patent publication US20060020110A1, “Synthetic peptides that bind to the hepatitis B virus core and E antigens” (priority 2000, published 2006):
Like-named read-outs stand apart in the source and are kept apart here.

Experiments:
[1] = molecular target: T1, HBeAg (Hepatitis B virus genotype D subtype ayw, UniProt P0C573); assay: Redirection of HSV gG2 mAb to HBeAg on solid phase by fusion peptide in solution; format: binding; settings: for gG2 mAb binding to indicated antigen on solid phase: HBeAg: fusion peptide in solution 20 μg/well
T1 construct: containing nine residues of pre-core and the 150 first residues of HBcAg; made in house
From the text: (§1) ID. […] The specificity exchangers provided in SEQ. ID. […] Similarly, the specificity exchangers provided in SEQ. ID.

[2] = molecular target: T2, HBcAg (Hepatitis B virus genotype D subtype ayw, UniProt P03146); settings: for gG2 mAb binding to indicated antigen on solid phase: HBcAg: fusion peptide in solution 20 μg/well
Procedure: To evaluate the efficacy of the specificity exchangers described above, several binding assays using a mAb specific for HSV gG2 were conducted. In one assay, the various specificity exchangers were coated onto microtiterplates and were bound with the mAb specific for HSV gG2. […] ID. […] In another assay, HBcAg was coated onto microtiter plates, specificity exchanger was added (20 μg/well), and the binding of the mAb specific for HSV gG2 was determined. […] ID. […] In another binding assay, HBeAg was coated onto microtiter plates, specificity exchanger was added (20 μg/well), and the binding of the mAb specific for HSV gG2 was determined. […] ID. […] The characterization assays used to evaluate binding partners can also be used and/or modified for the analysis of the specificity exchangers.

[3] = test system: mAb specific for HSV gG2; assay: gG2 mAb binding to fusion peptide on solid phase; settings: for gG2 mAb binding to indicated antigen on solid phase: fusion peptide: no addition of fusion peptide in solution; for Binding of mAb specific for HSV gG2 to coated specificity exchanger (in words): specificity exchanger coated onto microtiterplates
From the text: as §1

[4] = molecular target: T1, HBeAg; assay: Binding of HBeAg to support-bound peptides (EIA); settings: antigen at concentrations as low as 0.67 μg/ml, TABLE 8
[5] = molecular target: T2, HBcAg; settings: peptide contacted with HBcAg prior to antibody
From the text: (§2) One approach to rational drug design involves sequential amino acid deletion of a known binding partner starting from either the amino or carboxy termini. Amino-terminal deletions of the binding partners of SEQ. ID. Nos. 5 and 17 were made and these peptide fragments were joined to a support and analyzed for the ability to bind HBcAg. […] ID. […] The amino-terminal deletions of the peptide of SEQ. ID. […] The amino-terminal deletion products of the peptide of SEQ. ID. […] ID.
(§3) Variations of the characterization assays described above include competitive binding assays. […] Initial experiments were conducted by contacting binding partner to HBcAg prior to introducing the antibody. […] ID. […] ID. […] ID. […] ID. […] ID. […] ID.

[6] = molecular target: T2, HBcAg; settings: for Binding of 10 μg/ml HBcAg to dilutions of support-bound peptide (in words): at low concentrations, TABLE 9; for Binding to HBcAg (in words): support-bound peptides
From the text: as §2
To determine whether a candidate binding partner bound to HBcAg and/or HbeAg, a multimeric support-based binding assay was performed. Accordingly, synthetic peptides corresponding to the VH and VL domains of the sequenced mAbs were passively adsorbed to 96 well microplates in serial dilutions starting at 200 μg/ml. The peptide coated plates were then incubated with HBcAg and HBeAg serially diluted in PBS-GT. The amount of HBcAg and HBeAg bound by the peptides was then detected using a mAb directed to an epitope common to HBcAg and HBeAg (See Sällberg et al., J General Virology 74:1335-1340 (1993), herein expressly incorportaed by reference in its entirety) diluted 1:3000 in PBS-GT. The quantity of bound mAb was determined by addition by peroxidase labeled rabbit anti-mouse IgG (P260, Dako A S, Denmark). The plates were developed by incubation with ortho-phenylene-diamine (Sigma) and the absorbance at 492 nm was evaluated.
The converse of an aspect of this experiment was also performed. That is, various dilutions of support-bound binding partners (SEQ. ID. Nos. 5, 16, 17, 28, and 29) were contacted with 10 μg/ml of HBcAg and binding was evaluated. ID.

[7] = test system: B cell - mediated antigen presentation of HBcAg to experienced T cells; assay: Inhibition of B cell-mediated antigen presentation of HBcAg to experienced T cells; format: cell-based, Balb/c mice
Procedure: A characterization assay that was used to evaluate the ability of a binding partner to modulate a host immune system response to HBV was conducted as follows. Groups of Balb/c mice were immunized subcutaneously with 20 μg HBcAg. Ten days later, draining lymph nodes were harvested and experienced CD4^+ T cells were purified using anti-CD4 coated magnetic beads (Dynal A S, Oslo, Norway) according to the manufacturers instructions. Naïve B cells were obtained from syngeneic mice, which had not been immunized. These B cells were used as antigen presenting cells in the characterization assay.
The ability of the different mAbs and peptides to block B cell uptake and antigen presentation of HBcAg-peptides to HBcAg-specific CD4+ T cells was then tested in vitro. The cell populations were mixed at a B/T cell ratio of 1:5 and added at a final concentration of approximately 2.5×10^5 to 5.0×10^5 cells per well in a 96 well microplate. Approximately, 20 μg of HBcAg was preincubated with the binding partner. The binding partner mixtures were then added to the cells and the plates were incubated for 26 to 96 hours at 37° C. The effect of the binding partners on T cell proliferation was determined by monitoring [^3H] thymidine incorporation.

[8] = molecular target: T2, HBcAg; settings: for Lowest peptide concentration that prevented binding of mAb 4-2: peptide in the presence of mAb 4-2
Procedure: as §3

[9] = specificity exchanger 20 μg/well
[10] = antigen at concentrations as low as 0.67 μg/ml, TABLE 8
[11] = concentrations as low as 50 μg/ml
[12] = concentrations as low as 100 μg/ml
[13] = peptide 100 μg/ml in the presence of mAb 4-2
[14] = peptide 200 μg/ml in the presence of mAb 4-2

T2 sequence (P03146 whole entry, the tested form may be a part): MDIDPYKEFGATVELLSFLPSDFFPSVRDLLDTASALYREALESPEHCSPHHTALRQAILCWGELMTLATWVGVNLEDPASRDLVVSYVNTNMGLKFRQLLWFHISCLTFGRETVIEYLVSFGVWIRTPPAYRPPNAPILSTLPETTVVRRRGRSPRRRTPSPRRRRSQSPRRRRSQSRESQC
T1 sequence (P0C573 21-179): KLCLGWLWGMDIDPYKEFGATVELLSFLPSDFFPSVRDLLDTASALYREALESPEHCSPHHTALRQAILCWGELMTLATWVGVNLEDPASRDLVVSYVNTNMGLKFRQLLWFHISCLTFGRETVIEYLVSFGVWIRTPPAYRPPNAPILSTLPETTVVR

| Sequence | gG2 mAb binding to indicated antigen on solid phase: HBeAg [1] | gG2 mAb binding to indicated antigen on solid phase: HBcAg [2] | gG2 mAb binding to indicated antigen on solid phase: fusion peptide [3] | Binding to HBeAg (in words) [4] | Inhibition of mAb 4-2 binding to HBcAg (in words) ([5]; peptide 200 μg/ml) | Binding of 10 μg/ml HBcAg to dilutions of support-bound peptide (in words) [6] | Binding to HBcAg (in words) ([6]; TABLE 7) | Binding to HBcAg (in words) [6, 10] | Competition with mAb 4-2 for binding to HBcAg (in words) [8, 13] | Competition with mAb 4-2 for binding to HBcAg (in words) [8, 14] | further results |
| --- | --- | --- | --- | --- | --- | --- | --- | --- | --- | --- | --- |
| KLSCKASGYIFTSHRGGPEEF [SEQ. ID. No. 71] | 0.638 | 0.550 | 1.622 |  |  |  |  |  |  |  | Binding to immobilized HBeAg allowing binding of HSV gG2 mAb (in words) [1, 9]: appreciably bound the immobilized HBeAg; Binding to immobilized HBcAg allowing binding of HSV gG2 mAb (in words) [2, 9]: appreciably bound the immobilized HBcAg; Binding of mAb specific for HSV gG2 to coated specificity exchanger (in words) [3]: appreciably bound the mAb |
| VKLSCKASGYIFTSGGPEEFE [SEQ. ID. No. 76] | 0.024 | 0.025 | 0.018 |  |  |  |  |  |  |  |  |
| VKLSCKASGYIFTSHRGGPEE [SEQ. ID. No. 75] | 0.032 | 0.037 | 0.213 |  |  |  |  |  |  |  | Binding of mAb specific for HSV gG2 to coated specificity exchanger (in words) [3]: appreciably bound the mAb |
| KLSCKASGYIFTSEHRGGPEE [SEQ. ID. No. 70] | 0.022 | 0.020 | 0.040 |  |  |  |  |  |  |  |  |
| ISCRASQSVSTSSYSYMHWY (Synthetically prepared amino acid sequence) [Peptide 14] |  |  |  | appreciable binding | able to inhibit binding of mAb 4-2 | appreciable binding at low concentrations | high affinity | appreciable binding |  |  |  |
| QQKPGQPPKLLIKYASNLES (Synthetically prepared amino acid sequence) [Peptide 16] | 0.022 | 0.038 |  |  |  |  |  |  |  |  | Inhibition of B cell mediated antigen presentation of HBcAg to specific CD4+ T cells (in words) [7]: no inhibition; cpm ([3H] thymidine incorporation, T cell proliferation) ([7]; T + B cells, 20 μg HBcAg preincubated with inhibitor, positive control 573, background 110): 572 cpm; % inhibition of APC ([7]; T + B cells, 20 μg HBcAg, calculated from cpm versus positive control and background proliferation): 0% |
| VKPGASVKLSCKASGYIFTS (Synthetically prepared amino acid sequence) [Peptide 2] |  |  |  | appreciable binding | able to inhibit binding of mAb 4-2 | appreciable binding at low concentrations | high affinity | appreciable binding | effectively competed with mAb 4-2 | significantly inhibited | Inhibition of mAb 4-2 binding to HBcAg (in words) [5, 11]: appreciably reduced binding of mAb 4-2; Inhibition of mAb 4-2 binding to HBcAg (in words) [5, 12]: effectively reduced binding of the antibody; Lowest peptide concentration that prevented binding of mAb 4-2 [8]: 6.25 µg/mL |
| CKASGYSFTGYNMNWVKQSH (Synthetically prepared amino acid sequence) [Peptide 26] |  |  |  | appreciable binding | able to inhibit binding of mAb 4-2 |  | high affinity | appreciable binding | effectively competed with mAb 4-2 | significantly inhibited | Inhibition of mAb 4-2 binding to HBcAg (in words) [5, 11]: appreciably reduced binding of mAb 4-2; Inhibition of mAb 4-2 binding to HBcAg (in words) [5, 12]: effectively reduced binding of the antibody |
| VKLSCKASGYIFTSEHRGGPE [SEQ. ID. No. 73] | 0.029 | 0.038 | 0.060 |  |  |  |  |  |  |  |  |
| VKPGASVKISCKASGYSFTG (Synthetically prepared amino acid sequence) [Peptide 25] |  |  |  | appreciable binding | able to inhibit binding of mAb 4-2 | appreciable binding at low concentrations | high affinity | appreciable binding | effectively competed with mAb 4-2 | significantly inhibited | Inhibition of mAb 4-2 binding to HBcAg (in words) [5, 12]: effectively reduced binding of the antibody; Lowest peptide concentration that prevented binding of mAb 4-2 [8]: 12.5 µg/mL |
| LAVSLGQRATISCRASQSVS (Synthetically prepared amino acid sequence) [Peptide 13] |  |  |  | appreciable binding | able to inhibit binding of mAb 4-2 | appreciable binding at low concentrations | high affinity | appreciable binding | effectively competed with mAb 4-2 | significantly inhibited | Lowest peptide concentration that prevented binding of mAb 4-2 [8]: 6.25 µg/mL |
